The supplement of paper PMC10567573
± gives the standard deviation.

Experiment: protein stability index of a GFP-peptide fusion (GPS, HEK-293T) (PSI 1-6); higher = more stable
[1] = treatment: DMSO, c terminus: a fixed tail appended
[2] = treatment: MLN4924 1 uM, 8 h, c terminus: a fixed tail appended
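Note: 24-mer peptide tiles fused after GFP, lentivirally expressed, FACS-sorted into six equal bins by GFP/DsRed ratio, decoded by Illumina sequencing, PSI is the read-weighted mean bin number.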

**Q.** What does the source list for QGKDWGFKKFIRRDFLLDEANGLL [SPOPL]?
**A.** protein stability index [1]: 2.72 ± 0.27; protein stability index [2]: 2.31 ± 0.23

**Q.** For EKGTWTELEGDVAEPLAGPACVTV [KLHL14], which protein stability index [1] is on record?
**A.** The protein stability index was 4.66 ± 0.19.

**Q.** What about the protein stability index [2] of the same sequence?
**A.** Its protein stability index is 4.6 ± 0.19.

**Q.** For RFQDLVLRMLEYEPAARISPLGAL [DYRK1B], which protein stability index [1] is on record?
**A.** The protein stability index was 2.67 ± 0.47.

**Q.** What about the protein stability index [2] of the same sequence?
**A.** The protein stability index was 2.4 ± 0.43.

**Q.** For RLSVLLNLLPAAGELQESGLALCP [SMG5], which protein stability index [1] is on record?
**A.** Its protein stability index is 2.02 ± 0.39.

**Q.** And the protein stability index [2]?
**A.** Its protein stability index is 2.07 ± 0.18.

**Q.** Which protein stability index [1] does the source give for PRSAEPGYLVTKVVAVDRDSGQNA [PCDHGA10] here?
**A.** The protein stability index was 4.77 ± 0.16.

**Q.** What about the protein stability index [2] of the same sequence?
**A.** The protein stability index was 4.7 ± 0.29.

**Q.** Which protein stability index [1] does the source give for ISGVTKAISSPTVSRLTDTTKFTG [TPPP] here?
**A.** Its protein stability index is 3.89 ± 0.27.

**Q.** What about the protein stability index [2] of the same sequence?
**A.** Its protein stability index is 3.85 ± 0.17.

**Q.** Which protein stability index [1] does the source give for DHDPTIEDAYKIRIRIDDEPANLD [RIT1] here?
**A.** Its protein stability index is 4.86 ± 0.19.

**Q.** And the protein stability index [2]?
**A.** Its protein stability index is 4.84 ± 0.21.

**Q.** With VSRGGHGQQDLFRVLKAYTLYRPE [TBC1D10A] as the sequence, how does the protein stability index [1] read?
**A.** The protein stability index was 2.06 ± 0.17.

**Q.** And the protein stability index [2]?
**A.** Its protein stability index is 2.12 ± 0.36.

**Q.** Which protein stability index [1] does the source give for AMEPDRKAAVSHWQQQSYLDSGIH [CTNNB1] here?
**A.** Its protein stability index is 3.91 ± 0.31.

**Q.** And the protein stability index [2]?
**A.** The protein stability index was 3.95 ± 0.32.

**Q.** Which protein stability index [1] does the source give for PAEAEGAAQELENQMKERQGLFFD [TMEM120A] here?
**A.** Its protein stability index is 5.33 ± 0.1.

**Q.** What about the protein stability index [2] of the same sequence?
**A.** The protein stability index was 5.26 ± 0.34.

**Q.** What does the source list for HTGERPFQCNQCGASFTQKGNLLR [IKZF1]?
**A.** protein stability index [1]: 2.21 ± 0.29; protein stability index [2]: 2.79 ± 0.52

**Q.** With HCKEKRKTSLLDQLTNTSGTVIGV [NETO1] as the sequence, how does the protein stability index [1] read?
**A.** The protein stability index was 3.37 ± 0.24.

**Q.** What about the protein stability index [2] of the same sequence?
**A.** Its protein stability index is 3.34 ± 0.31.

**Q.** Which results are given for QYLEEERHMREENLRLQRKLQREM [CCDC6]?
**A.** protein stability index [1]: 4.24 ± 0.22; protein stability index [2]: 4.16 ± 0.42

**Q.** With DPFTVPTISFICRELDAISTNEEE [PRIM1] as the sequence, how does the protein stability index [1] read?
**A.** The protein stability index was 4.85 ± 0.31.

**Q.** What about the protein stability index [2] of the same sequence?
**A.** Its protein stability index is 4.78 ± 0.3.

**Q.** With GELLNMIVAVIDSAQLQELVCHVM [INTS3] as the sequence, how does the protein stability index [1] read?
**A.** The protein stability index was 2.92 ± 0.59.

**Q.** What about the protein stability index [2] of the same sequence?
**A.** The protein stability index was 2.6 ± 0.72.

**Q.** Which protein stability index [1] does the source give for TVGIYFGLVYRIHSVLQGFIPLFQ [TMEM40] here?
**A.** Its protein stability index is 3.16 ± 0.58.

**Q.** What about the protein stability index [2] of the same sequence?
**A.** The protein stability index was 3.16 ± 0.54.

**Q.** Which results are given for INLEEKEKQIRSFLIEGPLINTIR [PLEKHN1]?
**A.** protein stability index [1]: 2.5 ± 0.13; protein stability index [2]: 2.67 ± 0.31

**Q.** With NYDKLSRSIRQYYKKGIIRKPDIS [SPDEF] as the sequence, how does the protein stability index [1] read?
**A.** The protein stability index was 2.55 ± 0.21.

**Q.** What about the protein stability index [2] of the same sequence?
**A.** Its protein stability index is 2.74 ± 0.34.

**Q.** With GRKQPGVHEEPVLKKWPKLKSKK [C22orf31] as the sequence, how does the protein stability index (treatment: DMSO, c terminus: native) read?
**A.** The protein stability index was 5.16 ± 0.26.

**Q.** What about the protein stability index (treatment: MLN4924 1 uM, 8 h, c terminus: native) of the same sequence?
**A.** Its protein stability index is 5.08 ± 0.24.

**Q.** For YIGFYGKETTNTCILKCNLCSVNI [PDS5B], which protein stability index [1] is on record?
**A.** Its protein stability index is 2.98 ± 1.6.

**Q.** What about the protein stability index [2] of the same sequence?
**A.** The protein stability index was 2.96 ± 1.

**Q.** Which results are given for KTQEHTPTPDDHVFRWLAYSYAST [CPXM2]?
**A.** protein stability index [1]: 2.14 ± 0.34; protein stability index [2]: 2.2 ± 0.3

**Q.** With KLVKVCNGHDCWSLISLSNNTGKN [TENT5D] as the sequence, how does the protein stability index [1] read?
**A.** The protein stability index was 2.33 ± 0.24.

**Q.** What about the protein stability index [2] of the same sequence?
**A.** Its protein stability index is 2.34 ± 0.43.

**Q.** Which results are given for AQDLGELLATAEQEQLSLSQRQAK [LRRC45]?
**A.** protein stability index [1]: 5.25 ± 0.3; protein stability index [2]: 5.34 ± 0.058

**Q.** Which results are given for GGIPALVKMLGSPVDSVLFYAITT [CTNNB1]?
**A.** protein stability index [1]: 3.19 ± 0.79; protein stability index [2]: 3.07 ± 0.99

**Q.** For KLPNDSRVERRFHFSQSLTVIHDF [FAF2], which protein stability index [1] is on record?
**A.** Its protein stability index is 2.17 ± 0.19.

**Q.** What about the protein stability index [2] of the same sequence?
**A.** The protein stability index was 2.26 ± 0.44.

**Q.** With LEPDEDPLCMLLLIDHLALRARNY [TCF25] as the sequence, how does the protein stability index [1] read?
**A.** Its protein stability index is 2.54 ± 0.32.

**Q.** What about the protein stability index [2] of the same sequence?
**A.** Its protein stability index is 2.37 ± 0.23.

**Q.** What does the source list for YYLRKGKKINSNQLENEQSQENSI [SPANXN3]?
**A.** protein stability index [1]: 4.47 ± 0.23; protein stability index [2]: 4.23 ± 0.27

**Q.** Which protein stability index [1] does the source give for PPPPPSYDPDYIQCPYCQRRFNEN [ZC2HC1A] here?
**A.** Its protein stability index is 5.27 ± 0.34.

**Q.** And the protein stability index [2]?
**A.** Its protein stability index is 5.44 ± 0.17.

**Q.** Which protein stability index [1] does the source give for TWLTTPKSTWPRYSKPGLSMRLLE [TCF25] here?
**A.** The protein stability index was 2.41 ± 0.61.

**Q.** And the protein stability index [2]?
**A.** The protein stability index was 2.29 ± 0.31.

**Q.** Which protein stability index [1] does the source give for PNADLLFSDPSQSDPETKDFWLNM [FCHO1] here?
**A.** Its protein stability index is 4.2 ± 0.21.

**Q.** What about the protein stability index [2] of the same sequence?
**A.** The protein stability index was 4.19 ± 0.19.

**Q.** For LLAPGEQSLPCTERKPAATARLSR [KISS1], which protein stability index [1] is on record?
**A.** The protein stability index was 4.46 ± 0.37.

**Q.** What about the protein stability index [2] of the same sequence?
**A.** Its protein stability index is 4.72 ± 0.18.

**Q.** What does the source list for NAKKLSMYGVDLHHAKDSEGVEIM [EPB41L3]?
**A.** protein stability index [1]: 3.66 ± 0.8; protein stability index [2]: 3.61 ± 0.72

**Q.** With VRGLYDFYLPREELWIYNMETGRW [KLHDC2] as the sequence, how does the protein stability index [1] read?
**A.** Its protein stability index is 2.57 ± 0.39.

**Q.** What about the protein stability index [2] of the same sequence?
**A.** Its protein stability index is 2.24 ± 0.48.

**Q.** With APATTSSWEVVRNPLIASSFSLVK [C22orf31] as the sequence, how does the protein stability index [1] read?
**A.** Its protein stability index is 2.91 ± 0.24.

**Q.** And the protein stability index [2]?
**A.** The protein stability index was 2.96 ± 0.1.

**Q.** Which results are given for GSGGGYGGGMRVCGFGGGAGSVFG [KRT15]?
**A.** protein stability index [1]: 2.18 ± 0.29; protein stability index [2]: 2.34 ± 0.22

**Q.** Which results are given for STTEGIQLAKELGATYLELHSLDD [RHOBTB3]?
**A.** protein stability index [1]: 3.77 ± 0.3; protein stability index [2]: 4.16 ± 0.37

**Q.** With DSKDCILEPLSLPESPGGTTTLEG [ZNF277] as the sequence, how does the protein stability index [1] read?
**A.** The protein stability index was 5.36 ± 0.19.

**Q.** And the protein stability index [2]?
**A.** Its protein stability index is 5.32 ± 0.25.

**Q.** What does the source list for MWDSKKIGLRQHHCRKCGKAVCGK [WDFY2]?
**A.** protein stability index [1]: 3.31 ± 0.15; protein stability index [2]: 3.58 ± 0.72

**Q.** Which results are given for DLQVNRNFSLATNTKYSVYIYVYF [R3HDM1]?
**A.** protein stability index [1]: 2.59 ± 0.59; protein stability index [2]: 2.88 ± 0.078

**Q.** Which results are given for KSTSKYIYQTLFLNGENSDIKICA [GMCL1]?
**A.** protein stability index [1]: 2.06 ± 0.65; protein stability index [2]: 3.41 ± 1.3

**Q.** Which protein stability index [1] does the source give for NSIKNEKLEWAIDEDELRKSLSEL [PSD2] here?
**A.** Its protein stability index is 4.81 ± 0.15.

**Q.** What about the protein stability index [2] of the same sequence?
**A.** The protein stability index was 4.72 ± 0.079.

**Q.** Which protein stability index [1] does the source give for DSFDKFEFCEPAFVVGNCLQIASD [PCMTD1] here?
**A.** Its protein stability index is 3.31 ± 0.072.

**Q.** And the protein stability index [2]?
**A.** The protein stability index was 3.24 ± 0.22.

**Q.** With QRTIMKPLEYQFKSQIMSLSHSPQ [TLE6] as the sequence, how does the protein stability index [1] read?
**A.** Its protein stability index is 2.89 ± 0.26.

**Q.** And the protein stability index [2]?
**A.** The protein stability index was 3.2 ± 0.23.

**Q.** With ELDLSLSDLNEVPVKELAALPKAT [LRRC59] as the sequence, how does the protein stability index [1] read?
**A.** The protein stability index was 4.4 ± 0.25.

**Q.** And the protein stability index [2]?
**A.** The protein stability index was 4.49 ± 0.29.
